Data: US11685791B2, “Antibody binding specifically to N-terminal region of lysyl-tRNA synthetase exposed on cell membrane” (Zymedi Co., Ltd., priority 2017, dated 2023)
Blank lines part the entries; values can stand above or below the molecule they belong to.

Experiments:
[1] = Body weight change in PAH model; conditions: MCT + Sildenafil, n = 5
From the text: (§3) To induce PAH in seven-week-old SD rats (Orient Bio), 60 mpk of monocrotaline (MCT) was subcutaneously injected. […] All antibodies were i.v. injected twice a week, and sildenafil was orally administered every day.

[2] = system: pulmonary arterial hypertension (PAH) models; assay: Blood pressure and cardiac output in monocrotaline PAH model; format: in vivo, rat; conditions: MCT + Sildenafil 25 mpk orally every day, 3 weeks
Procedure: After three weeks, the rats were anesthetized with isoflurane, and measured for blood flow and pressure by using a high-precision pneumatic measurement system (MPVS cardiovascular pressure and volume system, model name: MPVS Ultra, manufacturer: Millar Instruments). The right ventricular end-systolic pressure (RVESP), right ventricular end-diastolic pressure, left ventricular end-systolic pressure, left ventricular end-diastolic pressure were measured using an exclusive catheter (Mikro-Tip rat pressure catheter, manufacturer: Millar Instruments). The cardiac output was measured using a perivascular blood flow probe (Transonic Flow probes, manufacturer: Millar Instruments), and experimental method thereof was performed by the same method as disclosed in the following literature: Pacher P, Nagayama T, Mukhopadhyay P, Batkai S, Kass D A. Measurement of cardiac function using pressure-volume conductance catheter technique in mice and rats. Nat Protoc 2008; 3(9):1422-34.
The models of PAH, which is a disease having a close relation between immune cell invasion and pathological phenomena, were treated with N3 IgG antibody (1 mpk or 10 mpk) for 3 weeks (i.v., twice a week), and then measured for right ventricular end-systolic pressure (RVESP), right ventricular end-diastolic pressure (RVEDP), left ventricular end-systolic pressure (LVESP), left ventricular end-diastolic pressure (LVEDP), and cardiac output (CO).

[3] = system: pulmonary arterial hypertension (PAH) models; assay: Echocardiography in PAH model; format: in vivo, rat; conditions: MCT PAH rats, five animals per group
From the text: as §3

[4] = biological target: T1, KRS N-terminus (Homo sapiens, UniProt Q15046); assay: Western blotting of scFv clones against full-length KRS and KRS fragments; format: binding; conditions: full-length KRS, fragment lacking N-terminal aa 1-71, fragment aa 1-200; transformed A549 lysate
T1 construct: a KRS fragment composed of amino acid residues 1-200 in the N-terminus; expressed in transfected cells; host or cells: A549
T1 sequence (Q15046 1-200): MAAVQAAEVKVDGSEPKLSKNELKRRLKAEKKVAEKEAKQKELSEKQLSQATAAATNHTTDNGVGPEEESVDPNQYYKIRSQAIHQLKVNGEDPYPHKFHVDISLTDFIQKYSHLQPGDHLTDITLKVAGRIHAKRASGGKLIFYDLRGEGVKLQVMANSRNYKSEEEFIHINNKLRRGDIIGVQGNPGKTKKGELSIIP
From the text: To investigate whether the scFv clones (N3, N5, N7, and N9) finally selected through Example <1-6> actually bound to KRS N-terminus, full-length KRS (denoted by F, SEQ ID NO: 76), a KRS fragment with deletion in amino acids at positions 1-71 in the N-terminus (defined by SEQ ID NO: 1), and a KRS fragment composed of amino acid residues 1-200 in the N-terminus (defined by SEQ ID NO: 2) were used to conduct western blotting.
A549 cells were transformed by the method as described in Example <1-6> using polynucleotides encoding full-length KRS and KRS fragments. Thereafter, the cells were lysed, and western blotting was performed by the same method as described in Example <1-4>.

[5] = biological target: T2, KRS N-terminal region exposed on the cell membrane (A549 cells, myc-KRS WT/T52D/T52A) (Homo sapiens, UniProt Q15046, T52D); assay: Immunofluorescence of scFv clones on cells with KRS N-terminal region exposed on the cell membrane; format: cell-based; conditions: A549 cells expressing myc-KRS T52D (active), T52A (inactive) or WT-KRS (laminin untreated)
T2 construct: expressed in transfected cells; host or cells: A549
T2 sequence (Q15046 whole entry T52D): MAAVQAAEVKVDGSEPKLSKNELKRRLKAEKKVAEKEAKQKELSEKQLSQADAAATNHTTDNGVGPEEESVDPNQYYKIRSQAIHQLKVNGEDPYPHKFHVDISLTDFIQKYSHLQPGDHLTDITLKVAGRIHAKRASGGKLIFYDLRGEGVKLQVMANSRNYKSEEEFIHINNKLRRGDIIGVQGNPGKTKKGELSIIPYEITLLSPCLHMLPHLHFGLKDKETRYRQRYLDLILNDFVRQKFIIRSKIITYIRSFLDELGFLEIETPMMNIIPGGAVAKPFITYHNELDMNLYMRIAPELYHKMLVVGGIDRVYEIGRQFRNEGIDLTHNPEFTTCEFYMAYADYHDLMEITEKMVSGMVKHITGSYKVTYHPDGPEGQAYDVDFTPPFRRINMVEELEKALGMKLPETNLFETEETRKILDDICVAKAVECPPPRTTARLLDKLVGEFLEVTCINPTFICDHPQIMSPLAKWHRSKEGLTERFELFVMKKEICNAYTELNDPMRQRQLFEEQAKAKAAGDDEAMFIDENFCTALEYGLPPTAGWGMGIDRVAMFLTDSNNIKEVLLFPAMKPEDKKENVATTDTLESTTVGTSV
Procedure: (§1) Immunofluorescence was performed to investigate whether the scFv clones selected in Example <1-5> actually bound to the KRS N-terminal region exposed on the cell membrane. In order to make a phenomenon in which KRS is exposed on the membrane, KRS-T52D mutant (active mutant) was used. […] After incubation for 24 h, the cells were incubated using serum-free media (RPMI 1640 media) at 37° C. for 1 h. Thereafter, the cells were treated with 10 μg/ml laminin (L2020; Sigma) and then incubated at 37° C. for 1 h.
(§2) The prepared samples were washed with PBS (4° C.), fixed by the treatment with 4% paraformaldehyde for 10 min, and then washed. The samples were blocked with CAS block for 10 min, and treated with the scFv and Myc antibodies for 2 h. Thereafter, the unbound antibodies were washed out, and incubated with secondary antibodies for 1 h in a dark room. DAPI staining was performed for 10 min before mounting.

[6] = biological target: T3, extracellularly exposed KRS N-terminal region (Homo sapiens, UniProt Q15046); assay: Immunofluorescence staining of converted IgGs; format: cell-based; conditions: WT-KRS membrane localization induced by laminin treatment
T3 construct: expressed in transfected cells; host or cells: A549
T3 sequence (Q15046 whole entry): as the sequence (Q15046 whole entry T52D) above, with D52T counted along it
Procedure: as §1, §2
To investigate whether the IgGs constructed in the present invention actually bound to the region of KRS exposed on the cell membrane, immunofluorescence was performed. Immunofluorescence staining was performed by the same method as described in Example <1-6> by using N3 IgG and N5 IgG as representatives.

[7] = biological target: T4, KRS 1-207 aa (Homo sapiens, UniProt Q15046); assay: SPR (Biacore 2000) binding of IgGs to immobilized KRS; conditions: immobilized KRS 185 RU, antibody 6.25-100 nM
T4 construct: to the antigen (KRS 1-207 aa)
T4 sequence (Q15046 1-207): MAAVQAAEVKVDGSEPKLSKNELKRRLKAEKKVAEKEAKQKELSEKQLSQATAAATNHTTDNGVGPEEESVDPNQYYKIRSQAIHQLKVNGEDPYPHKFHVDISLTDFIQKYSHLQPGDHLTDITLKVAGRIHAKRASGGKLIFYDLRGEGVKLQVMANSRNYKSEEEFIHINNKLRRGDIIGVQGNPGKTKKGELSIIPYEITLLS
Procedure: The quantitative binding ability of the purified antibody proteins (N3 IgG and N5 IgG) to the antigen (KRS 1-207 aa) were measured using Biacore 2000 SPR (surface plasmon resonance) (GE healthcare, US) biosensor. After KRS was immobilized on a sensor chip (CM5, GE healthcare, US), antibody proteins (6.25-100 nM), which were serially diluted with HES buffer solution (10 mM HEPES, pH 7.4, 150 mM NaCl, 3 mM EDTA, 0.005% surfactant P20), were allowed to flow at a rate of 30 μl/min for 3 min, and 1 M NaCl/20 mM NaOH was allowed to flow at a rate of 30 μl/min for 3 min, thereby inducing the dissociation of proteins bound to the antigen. Mock IgG was used as control. Specific experiment conditions are as follows:
Immobilized level: 185 RU
Antibody: N3 IgG and N5 IgG
Running buffer: HBS-N buffer
Regeneration: 2 M NaCl, 20 mM NaOH (flow 30 ul/min 1 min)
The affinity was obtained from the kinetic rate constants (ka and kd) and equilibrium dissociation constants (KD) by using BIA evaluation ver. 3.2 software. FIGS. 6A-6B show SPR graph results of N3 IgG and N5 IgG, respectively. It was confirmed from FIGS. 6A-6B and Table 3 that N3 IgG and N5 IgG of the present invention has high specific binding ability to the KRS N-terminal region.

[8] = biological target: T5, KRS (Homo sapiens, UniProt Q15046); assay: Western blotting and immunoprecipitation of converted IgGs; format: binding; conditions: HCT116 cell lysate
T5 construct: endogenous in cells; host or cells: HCT116
T5 sequence (Q15046 whole entry): as the sequence (Q15046 whole entry T52D) above, with D52T counted along it

Molecule: CCCc1nn(C)c2c(=O)[nH]c(-c3cc(S(=O)(=O)N4CCN(C)CC4)ccc3OCC)nc12 [Sildenafil, sildenafil, reference compound]
body weight, absolute change [1]: 104.1 ± 26.4 g
body weight, relative change [1]: 49.8 ± 10.5%
CO ([2]; n = 4): 49.6 ± 17.7 mL/min
LVEDP ([2]; n = 5): 3.6 ± 2.3 mmHg
LVESP ([2]; n = 5): 83.2 ± 4.7 mmHg
RVEDP ([2]; n = 5): 2.6 ± 1.3 mmHg
RVESP ([2]; n = 5): 48.4 ± 9.6 mmHg
D-shaped left ventricle finding indicating pressure overload in the right ventricle [3]: three

specific binding to KRS N-terminus (western blotting) [4]: specifically bound to the KRS N-terminus
binding to membrane-exposed KRS N-terminal region (immunofluorescence) [5]: binding only active mutant cells
B1: N7 scFv: scFv clone consisting of the amino acid sequence defined by SEQ ID NO: 71 (protein)
scFv: EVQLLESGGGLVQPGGSLRLSCAASGFTFSDYYMSWVRQAPGKGLEWVSGIYSGTGSIYYADSVEGRFTISRDNSKNTLYLQMNSLRAEDTAVYYSARPPYHFDYWGQGTLVTVSSGGGGSGGGGSGGGGSQSVLTQPPSASGTPGQRVTISCTGSSSNIGSNYVTWYQQLPGTAPKLLIYADSNRPSGVPDRFSGSKSGTSASLAISGLRSEDEADYYCGAWDYSLSGYVFGGGTKLTVL

specific binding to KRS N-terminus (western blotting) [4]: specifically bound to the KRS N-terminus
binding to membrane-exposed KRS N-terminal region (immunofluorescence) [5]: binding only active mutant cells
B2: N5 scFv: scFv clone consisting of the amino acid sequence defined by SEQ ID NO: 69 (protein)
scFv: EVQLLESGGGLVQPGGSLRLSCAASGFTFSDYAMSWVRQAPGKGLEWVSWIYSGSGNKYYADSVKGRFTISRDNSKNTLYLQMNSLRAEDTAVYYCARMGLDFDYWGQGTLVTVSSGGGGSGGGGSGGGGSQSVLTQPPSASGTPGQRVTISCTGSSSNIGNNYVSWYQQLPGTAPKLLIYDDNQRPSGVPDRFSGSKSGTSASLAISGLRSEDEADYYCGTWDDSLSAYVFGGGTKLTVL

binding to extracellularly exposed KRS N-terminal region (immunofluorescence) [6]: favorably bound specifically
ka [7]: 3.13e+06 M⁻¹ s⁻¹
kd [7]: 0.003282 s⁻¹
KRS binding ability (western blotting and immunoprecipitation) [8]: bound to KRS
B3: N5 IgG: IgG converted from N5 scFv; VH SEQ ID NO: 53, VL SEQ ID NO: 55 (antibody, V domains shown)
VH: EVQLLESGGGLVQPGGSLRLSCAASGFTFSDYAMSWVRQAPGKGLEWVSWIYSGSGNKYYADSVKGRFTISRDNSKNTLYLQMNSLRAEDTAVYYCARMGLDFDYWGQGTLVTVSS
VL: QSVLTQPPSASGTPGQRVTISCTGSSSNIGNNYVSWYQQLPGTAPKLLIYDDNQRPSGVPDRFSGSKSGTSASLAISGLRSEDEADYYCGTWDDSLSAYVFGGGTKLTVL

specific binding to KRS N-terminus (western blotting) [4]: specifically bound to the KRS N-terminus
binding to membrane-exposed KRS N-terminal region (immunofluorescence) [5]: binding only active mutant cells
B4: N9 scFv: scFv clone consisting of the amino acid sequence defined by SEQ ID NO: 73 (protein)
scFv: EVQLLESGGGLVQPGGSLRLSCAASGFTFSNYDMSWVRQAPGKGLEWVSWIYSGDSSKYYADSVKGRFTISRDNSKNTLYLQMNSLRAEDTAVYYSARETRTFDYWGQGTLVTVSSGGGGSGGGGSGGGGSQSVLTQPPSASGTPGQRVTISCTGSSFNIGSNAVYWYQQLPGTAPKLLIYYNSQRPSGVPDRFSGSKSGTSASLAISGLRSEDEADYYCGSWDASLSGYVFGGGTKLTVL

specific binding to KRS N-terminus (western blotting) [4]: specifically bound to the KRS N-terminus
binding to membrane-exposed KRS N-terminal region (immunofluorescence) [5]: binding only active mutant cells
B5: N3 scFv: scFv clone consisting of the amino acid sequence defined by SEQ ID NO: 67 (protein)
scFv: EVQLLESGGGLVQPGGSLRLSCAASGFTFSSYDMSWVRQAPGKGLEWVSAISYDNGNTYYADSVKGRFTISRDNSKNTLYLQMNSLRAEDTAVYYSARMALDFDYWGQGTLVTVSSGGGGSGGGGSGGGGSQSVLTQPPSASGTPGQRVTISCTGSSSNIGSNYVTWYQQLPGTAPKLLIYDNSNRPSGVPDRFSGSKSGTSASLAISGLRSEDEADYYCASWDDSLSAYVFGGGTKLTVL
